Laboratory results: the MegaScale stability set (Tsuboyama et al. 2023)

B1: 2K2A (parent)
chain: ELREAFRLYDKEGNGYISTDVMREILAELDETLSSEDLDAMIDEIDADGSGTVDFEEFMGVMT

Variants of: B1
Assay: folding stability dG (cDNA display proteolysis); higher = more stable
Settings: PBS, room temperature

Variant	folding stability dG [kJ/mol]
T19W	5.87
T19H	4.22
T19P	3.19
T19L	9.5
T19K	7
T19I	9.56
T19Y	8.49
T19F	9.11
T19M	7.98
T19G	2.2
T19A	5.54
T19V	8.53
T19R	7.8
T19S	5.13
T19N	7.25
T19Q	2.88
T19E	0.105
T19C	5.8
T19D	0.883
E28L	9.43
E28P	-0.649
E28M	9.53
E28Q	9.36
E28D	7.44

Variant	folding stability dG [kJ/mol]
E28I	7.73
E28C	9.75
E28G	9.55
E28N	9.28
E28H	9.19
E28F	7.4
E28K	10.5
E28R	10.8
E28W	7.9
E28S	9.8
E28A	10.3
E28T	8.49
E28V	7.36
E28Y	7.68
G13W	2.42
G13I	2.25
G13E	4.59
G13H	4.79
G13C	6.29
G13N	7.27
G13R	4.24
G13M	5.15
G13V	3.31
G13F	3.9

Variant	folding stability dG [kJ/mol]
G13A	4.41
G13D	5.89
G13Q	5.26
G13P	-0.611
G13T	1.87
G13K	4.78
G13L	4.66
G13Y	2.54
G13S	4.95
A27W	7.25
A27T	6.68
A27L	8.62
A27F	7.24
A27E	4.69
A27P	-2.52
A27Y	7.32
A27V	6.66
A27M	8.49
A27Q	8.06
A27N	5.2
A27G	6.17
A27H	8.1
A27S	7.81
A27C	6.13

Variant	folding stability dG [kJ/mol]
A27K	9.23
A27D	0.929
A27R	9.43
A27I	7.81
I17R	-3.54
I17K	-3.57
I17C	1.16
I17V	5.08
I17L	5.7
I17T	-4.18
I17W	0.0251
I17F	3.42
I17Y	-2.06
I17M	1.82
I17S	-4.03
M22V	5.86
M22A	3.87
M22D	-3.22
M22Y	1.23
M22L	8.26
M22C	4.01
M22T	0.649
M22F	6.9
M22H	-4.12

Variant	folding stability dG [kJ/mol]
M22W	3.54
M22I	6.1
G15S	1.94
G15H	1.92
G15L	3.52
G15T	1.08
G15N	3.1
G15M	2.77
G15P	1.45
G15D	2.25
G15I	2.15
G15W	3.44
G15Y	2.39
G15Q	1.88
G15C	4.59
G15K	1.13
G15F	2.87
G15V	1.92
G15E	2.04
G15R	1.39
G15A	2.46
L29W	8.99
L29T	4.81
L29I	6.86

Variant	folding stability dG [kJ/mol]
L29E	2.34
L29A	6.37
L29F	8
L29D	1.56
L29S	5.53
L29M	8.98
L29G	4
L29N	5.62
L29K	6.36
L29R	8.89
L29H	7.23
L29Y	8.03
L29C	9.11
L29Q	6.23
L29V	5.37
E31F	7.92
E31K	9.78
E31H	9.46
E31A	9.37
E31R	10.1
E31P	10.9
E31M	8.43
E31C	8.04
E31Q	9.21

Variant	folding stability dG [kJ/mol]
E31G	9.07
E31D	8.26
E31I	8.05
E31L	8.39
E31N	8.98
E24G	8.72
E24C	10.9
E24T	9.27
E24Q	10.4
E24V	9.33
E24D	7.41
E24R	10.8
E24A	9.85
E24M	10.5
E24S	9.61
E24Y	9.21
E24F	9.7
E24I	9.59
E24N	9.17
E24W	9.66
E24P	-0.699
E24K	10.9
E24L	10.7
E24H	8.95

Variant	folding stability dG [kJ/mol]
Y16K	4.96
Y16N	2.61
Y16A	3.05
Y16W	9.77
Y16E	1.32
Y16Q	4.32
Y16C	2.62
Y16D	-0.753
Y16V	4.59
Y16L	4.02
Y16R	4.81
Y16S	4.3
Y16M	3.35
Y16F	7.92
Y16G	-0.397
Y16I	3.74
Y16P	-4.02
Y16H	5.06
Y16T	4.38
D20C	7.94
D20Y	6.93
D20G	7.89
D20E	9.05
D20F	7.89

Variant	folding stability dG [kJ/mol]
D20H	8.56
D20P	4.8
D20I	8.5
D20R	9.34
D20N	8.52
D20S	9.46
D20V	8.94
D20M	9.43
D20K	10
D20T	9.41
D20A	9.52
D20W	8.34
D20L	9.85
D20Q	9.74
V21E	6.53
V21G	4.05
V21R	7.88
V21Y	6.74
V21L	9.17
V21C	8.35
V21D	8.15
V21Q	9.87
V21N	7.27
V21K	8.54

Variant	folding stability dG [kJ/mol]
V21T	8.04
V21A	9.09
V21W	4.55
V21F	5.88
V21I	8.46
V21H	7.43
V21M	8.63
V21S	8.11
I25T	-2.55
I25H	-0.138
I25R	0
I25V	5.47
I25L	7.62
I25Q	-3.17
I25C	3.29
I25F	6.41
I25W	3.95
I25A	3.65
I25K	0.741
I25M	5.48
I25Y	3.68
L26F	4.34
L26V	2.32
L26C	2

Variant	folding stability dG [kJ/mol]
L26M	5.33
L26W	3.5
L26Y	1.23
L26R	-3.68
L26A	0.347
L26I	6.05
S18L	5.89
S18W	3.1
S18G	6.38
S18R	6.65
S18D	3.92
S18N	4.83
S18I	3.62
S18K	5.17
S18Q	4.24
S18C	5.39
S18A	5.94
S18P	6.6
S18Y	5.51
S18M	5.25
S18F	4.82
S18E	3.49
S18H	6.45
S18T	8.43

Variant	folding stability dG [kJ/mol]
S18V	3.2
R23M	1.91
R23S	-2.35
R23T	-2
R23F	0.519
R23V	-0.28
R23A	0.761
R23L	2.18
R23Q	-2.02
R23G	-1.58
R23W	3.06
R23K	7.05
R23Y	2.49
R23H	-0.142
R23C	0.393
R23I	1.53
N14Y	6.71
N14T	7.28
N14P	-1.45
N14W	5.76
N14M	7.46
N14E	3.8
N14F	7.11
N14A	6.49

Variant	folding stability dG [kJ/mol]
N14I	7.25
N14S	6.3
N14C	5.97
N14R	8.82
N14Q	6.41
N14D	5.45
N14H	6.82
N14V	8.66
N14K	8.75
N14L	9.08
N14G	3.05
E12Q	6.54
E12G	4.86
E12P	2.28
E12T	5.54
E12S	5.59
E12N	6.38
E12M	6.41
E12L	6.47
E12K	4.72
E12F	6.08
E12V	4.97
E12R	3.54
E12H	5.89

Variant	folding stability dG [kJ/mol]
E12W	6.18
E12Y	5.03
E12I	4.61
D30T	5.42
D30A	5.36
D30R	7.18
D30P	2.31
D30V	6.49
D30F	9.15
D30I	7.56
D30L	8.09
D30N	8.77
D30W	9.28
D30G	4.72
D30E	4.03
D30H	8.69
D30C	8.26
D30Q	5.79
D30S	5.87
D30K	6.07
D30Y	9.86
D30M	8.18
